Experimental data reported in the supplement of paper PMC12764529.
± gives the half width of the 95% confidence interval.

Tests used:
[1] = folding stability dG unfold from chymotrypsin proteolysis; higher = more stable
Outline: (§1)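 Unfolding free energy was derived, per protease or combined, by relating Bayesian-fitted K50 values from sequencing counts to a sequence-predicted unfolded-state K50 and a shared folded-state K50. The underlying digests exposed cysteine-free mini-proteins under 80 residues, in a PA-tagged cDNA display construct, to trypsin and chymotrypsin at 11 threefold-diluted concentrations and to a no-protease condition. A filter kept only designs with AlphaFold2 dimer inter-PAE above 15.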

[2] = folding stability dG unfold (combined trypsin and chymotrypsin); higher = more stable
Outline: as §1

Sequence	folding stability dG unfold [1]	folding stability dG unfold [2]
SAGGSAGGSAGVVYPLAGRPVRIDTSATDSLVVTTEPPDGTRTTRTYPDMDLDEVLAALASAGGSAGGSAGG [r11_934_JUSTAS]	0.639 ± 0.072 kcal/mol	0.0129 ± 0.12 kcal/mol
SAGGSAGGSAGYKPDPDGQYTQEMRLPREPPRIRITIPMSPNDPDKAQKFINNLAEEFGISAGGSAGGSAGG [r17_501_TrROS]	-0.0614 ± 0.64 kcal/mol	-0.32 ± 0.32 kcal/mol
SAGGSAGGSAIKIETQGTPEEAREFAKDFANKNPELLENMKIDVITWRPPEPKYTPNGKPKSAGGSAGGSAG [r3_89_TrROS]	-0.104 ± 0.2 kcal/mol	-0.759 ± 0.24 kcal/mol
SAGGSAGGSAITIKELAKEGYTIEIRPPDGKKETFKPGDSVDDPAEEFDLPPNWRIEIRPPSAGGSAGGSAG [r3_216_TrROS]	-0.382 ± 0.3 kcal/mol	< -1 kcal/mol
SAGGSAGGSAKNTASLKKDDGFVAYNPKTGKYVAEVEVVKDDKDNIDLPLPNGDEVEIDAVGSAGGSAGGSA [r18_363_TrMRF]	-0.54 ± 0.42 kcal/mol	-0.846 ± 0.44 kcal/mol
SAGGSAGGSALLEEAGALAAARGWDVEVSPGPVVTVRSPAGREVTITREGDELTVTERELPGDRSAGGSAGG [r6_523_JUSTAS]	0.466 ± 0.18 kcal/mol	-0.308 ± 0.35 kcal/mol
SAGGSAGGSALRPDEPFLVRVRIVDPRPGEGPPVERELVLPLEAILRLIPPGAGADVELLPSAGGSAGGSAG [r3_223_TrMRF]	-0.747 ± 0.94 kcal/mol	< -1 kcal/mol
SAGGSAGGSAPKFDLRPEVFPLEDDSFLFVSRLLDPDKRLLTLVKVPPNGGLELGDVLLLDSAGGSAGGSAG [r3_165_TrMRF]	-0.176 ± 0.3 kcal/mol	-0.829 ± 0.33 kcal/mol
SAGGSAGGSASSVSSLSEETLPDGKPVLVRKETVYDPKHGLTGLSVTYYTLGGKKLKTEVVSAGGSAGGSAG [r3_154_JUSTAS]	-0.477 ± 0.26 kcal/mol	-0.698 ± 0.22 kcal/mol
SAGGSAGGSAVVYDENTAIVKTPNKDYLLKVKVGDTVDIPDSAGIPVPVKVEKDFPIPPSELSAGGSAGGSA [r18_244_JUSTAS]	-0.38 ± 0.12 kcal/mol	-0.943 ± 0.43 kcal/mol
SAGGSAGGSAWYIRIKSPELRKKLKNAGGIKPTEREPNWVTFKFPGMPPKKRDKIRELIKDSAGGSAGGSAG [r3_398_TrROS]	-0.644 ± 0.49 kcal/mol	-0.969 ± 0.26 kcal/mol
SAGGSAGGSGEPRTVLVEVLYDDKPVLIPVTADSEEALPEVARAAIEPLAEKYPHVEIPLPTESAGGSAGGS [r12_230_TrMRF]	0.164 ± 0.11 kcal/mol	-0.66 ± 0.52 kcal/mol
SAGGSAGGSGSMSLSESPTSRTLTLTYPDSVVVTEYDPETGPPVTRFVSREDGVPVVYPAELLSAGGSAGGS [r12_632_JUSTAS]	-0.0818 ± 0.1 kcal/mol	-0.414 ± 0.09 kcal/mol
SAGGSAGGSGTSTSSSGPSTVTITLHTDSPVTLTVPPETTEELAAELKARGYNLEVKVTPAPASAGGSAGGS [r20_124_JUSTAS]	0.161 ± 0.12 kcal/mol	-0.195 ± 0.11 kcal/mol
SAGGSAGGSGYPGLPMPVLRVRFAGDPEPVFIPVPADRPDVARAAAEELRALRPDVPVELELGSAGGSAGGS [r12_601_TrMRF]	0.823 ± 0.045 kcal/mol	0.107 ± 0.057 kcal/mol
SAGGSAGGSGYSVSVSEDFSSSPETRTVTTTTTSPSSGPLVTTTTTTTSPIPPRTPAEVAAAASAGGSAGGS [r12_841_JUSTAS]	0.697 ± 0.029 kcal/mol	0.327 ± 0.048 kcal/mol
SAGGSAGGSIKITLETETETYLDPEDPNRPVTKVKAVKPTIEVPEENPEKLKELAEKLGLELESAGGSAGGS [r12_249_TrMRF]	0.723 ± 0.034 kcal/mol	0.232 ± 0.1 kcal/mol
SAGGSAGGSKIKSITIDPEAGKVTIEVDKDTPPKPLPSVKTVEEKNDGYTVTFDVKDDEEILLSAGGSAGGS [r20_37_TrMRF]	0.416 ± 0.086 kcal/mol	-0.39 ± 0.41 kcal/mol
SAGGSAGGSKMKKITIEVPTEEERKALEEAIKKGEPEVEITTKNGKKIKIKKIEIKEIKIEKKSAGGSAGGS [r12_334_TrROS_Hall]	1.58 ± 0.14 kcal/mol	0.758 ± 0.42 kcal/mol
SAGGSAGGSMKLGGKPIKRVESEPLPGPSRLFYIELEDKKIPVVLEGDKLLVSPELFEWEKEGSAGGSAGGS [r20_92_TrMRF]	0.396 ± 0.22 kcal/mol	-0.0157 ± 0.2 kcal/mol
SAGGSAGGSMPEKKFKAEVVEEIEDPKTGKKFYFLKDTKQIFVENKDGSRTAITIDEDKLEIVSAGGSAGGS [r12_420_TrROS_Hall]	0.433 ± 0.098 kcal/mol	0.0252 ± 0.15 kcal/mol
SAGGSAGGSMTITVETTSKDPAVAEKELTEKVKKEYPPSVKVEIDPVSSPDGVARVRATIIRESAGGSAGGS [r20_122_JUSTAS]	0.529 ± 0.09 kcal/mol	0.291 ± 0.19 kcal/mol

Sequence	folding stability dG unfold [1]	folding stability dG unfold [2]
SAGGSAGGSMTPVHVYVPPSLSPEEARARVRAELRAALPAAEADVPLEDVEVVLRPLPPDVPLSAGGSAGGS [r12_384_JUSTAS]	0.303 ± 0.42 kcal/mol	< -1 kcal/mol
SAGGSAGGSMTTLRTRLKGDGTVEIEVYEPGRIRTITLPPSEVDKIPDVEDLPRYELEGDAPESAGGSAGGS [r12_343_JUSTAS]	0.147 ± 0.21 kcal/mol	-0.514 ± 0.22 kcal/mol
SAGGSAGGSMTVTLSYPDGSTVTRPLEGKSLEEAIAALPEDVTEVQVTVLEGSTPVTRTVPRPSAGGSAGGS [r12_767_JUSTAS]	0.731 ± 0.023 kcal/mol	0.344 ± 0.054 kcal/mol
SAGGSAGGSPAIRVERDPETDVLLAEIGHPDGVPALARISPATGTVTVLEGGKLVEVPLPEIGSAGGSAGGS [r12_650_TrMRF]	0.627 ± 0.018 kcal/mol	0.113 ± 0.13 kcal/mol
SAGGSAGGSPPVIHPMTVTTLAYDPATGVVDVLVDDKGKDPAVREAAEAAARAAGHPVEVVPRSAGGSAGGS [r20_157_JUSTAS]	-0.637 ± 0.34 kcal/mol	< -1 kcal/mol
SAGGSAGGSPVRPRTGTVYDPETGARVDVLEYEFPLPDGTPVTVTEVVVTDGDTRTTATLVDPSAGGSAGGS [r12_619_TrMRF]	0.29 ± 0.014 kcal/mol	-0.263 ± 0.073 kcal/mol
SAGGSAGGSPWQVTHETVTLPEYDPSSDKPIREVTVTVTTETDPTTGATTVSLNLPSDFLRELRSAGGSAGG [r6_206_JUSTAS]	0.291 ± 0.14 kcal/mol	-0.123 ± 0.22 kcal/mol
SAGGSAGGSRWRVSFEGPNGGTQEHDIPVPPGEPVDLDEILDEFKEAHPGGPPRPIKIERPDPSAGGSAGGS [r12_262_TrROS]	0.232 ± 0.28 kcal/mol	-0.651 ± 0.33 kcal/mol
SAGGSAGGSSGLTLLEETEISPGPPVPAIPATLPVKVDGKTVPLPITLTPEELAALRAELLRRSAGGSAGGS [r20_148_JUSTAS]	0.893 ± 0.088 kcal/mol	0.364 ± 0.093 kcal/mol
SAGGSAGGSSPKAQRLQDRIRQEFPPNEIDKVEMSGDKIVIHGRPGYRQRIQEELGLKNIEIVSAGGSAGGS [r12_748_TrROS]	0.344 ± 0.098 kcal/mol	0.0708 ± 0.13 kcal/mol
SAGGSAGGSSSRFEAIKKKILDAFPEDVIKEVKKGPGKIYVVGKPEYIKEIKKLTGSKDIIINSAGGSAGGS [r12_748_JUSTAS]	-0.559 ± 0.36 kcal/mol	-0.606 ± 0.34 kcal/mol
SAGGSAGGSSTLSVELPDFTGSAADVLAALRAAFPDPALVLDGVEVRPLGADRPGWRVELAVASAGGSAGGS [r12_348_JUSTAS]	0.958 ± 0.091 kcal/mol	0.499 ± 0.078 kcal/mol
SAGGSAGGSTITGRFESPEGINELANEFPGVEIFEDPENNWIYVEIEIKPPPPPPPEDQKNNKSAGGSAGGS [r20_191_TrROS]	0.916 ± 0.078 kcal/mol	0.35 ± 0.3 kcal/mol
SAGGSAGGSTTMTLTITEYTNDPEGGVKKKKSTTESTVSPEEVEKVAEEVKKKSKNVKVTVNSSAGGSAGGS [r12_342_JUSTAS]	-0.315 ± 0.29 kcal/mol	-0.775 ± 0.23 kcal/mol
SAGGSAGGYRITIKDPDGVKIEIWQGPNGMMPIKVENPNGKKRERMVNGPPGDIEDFLKELLKQSAGGSAGG [r6_27_TrROS]	0.378 ± 0.31 kcal/mol	-0.125 ± 0.59 kcal/mol
SAGGSAGHMIEKVTTTSPDNTTTTVSLTPPDAPLDIKLPNGASATQTPLPGGRLRVTTTTTTPAAASAGGSA [r15_523_JUSTAS]	0.841 ± 0.062 kcal/mol	0.338 ± 0.21 kcal/mol
SAGGSAGMPTTVFLTRPGPRAITMRTDPVSGTVTFTLPSGEVTTTPLSTVKELKVPPDIATVTILASAGGSA [r15_1043_JUSTAS]	-0.365 ± 0.29 kcal/mol	-0.609 ± 0.24 kcal/mol
SAGGSAKIEIEWNPENGMVRVKAEYPNDGKKKEHTFNPGDSPKQLADDINQEFKKPVEIDEIEWYPSAGGSA [r15_544_TrROS]	0.683 ± 0.04 kcal/mol	0.153 ± 0.44 kcal/mol
SAGGSAKLPPGQRVRLEIEHPAHGWTHEHTFPIKSVEEFKQSLEIPMPNPNGEPMPMRVKILDVEKSAGGSA [r15_797_TrROS]	-0.363 ± 0.48 kcal/mol	< -1 kcal/mol
SAGGSALPPGQKIKMKFPDDGKKMTITFNPGQNNIEIENDGKKETYPFDSVEDLLDEFGWKVLDIESAGGSA [r15_500_TrROS]	0.465 ± 0.073 kcal/mol	-0.0488 ± 0.19 kcal/mol
SAGGSALTAKEARELVRNYAREHNPDYKVKGIEVERLPDKWVHADIEVRPPENPGQEHEWSIWIPYSAGGSA [r15_627_TrROS]	-0.418 ± 0.33 kcal/mol	-0.986 ± 0.31 kcal/mol
SAGGSAMIEVRTVAGEPVEVTPIPEDEVLVARTPGGRKAPFLLGEDVLRELVVEPDAPPDLFIVPGSAGGSA [r15_709_TrMRF]	-0.141 ± 0.093 kcal/mol	-0.617 ± 0.13 kcal/mol
